Here are results for one sequence from patent US20170122849.

The series deals with (KW)2KKA-eGFP-AKK(WK)2 (DNA-staining eGFP) (synthetic construct (eGFP from Aequorea victoria?)). In words: EMSA. Particulars: about; apparent Kd; TE/glycerol, 0.5x TBE 4-20% gel, EtBr stain.

Regarding “CTACTAGCACAATCGACTGTACGGACCGATCGAGTCACTAGCAGTCTAGCAA (double strand) [52-mer random sequence dsDNA]”, the Kd turned out to be 14.7 µM.
